Reference: patent publication CN117736324A (BEIJING DONGFANG BIOTECH CO LTD; BEIJING JINGYI TAIXIANG …, dated 2024)

How the values were obtained:
[1] = target: T1, 人Siglec-15抗原 (Siglec-15蛋白胞外段) (human, UniProt Q6ZMC9 20-263); assay: ELISA, Siglec-15 coated, Goat Anti-Mouse IgG-HRP detection
T1 construct: extracellular domain
T1 sequence (looked up): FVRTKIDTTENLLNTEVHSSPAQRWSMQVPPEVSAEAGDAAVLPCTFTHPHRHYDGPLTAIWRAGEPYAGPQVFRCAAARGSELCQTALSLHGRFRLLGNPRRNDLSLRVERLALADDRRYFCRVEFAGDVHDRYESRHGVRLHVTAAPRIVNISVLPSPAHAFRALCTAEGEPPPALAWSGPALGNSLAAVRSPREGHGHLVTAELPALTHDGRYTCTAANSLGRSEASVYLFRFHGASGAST

[2] = target: T1, 人Siglec-15抗原 (Siglec-15蛋白胞外段); assay: phage supernatant ELISA, screening of single clones
[3] = target: T1, 人Siglec-15抗原 (Siglec-15蛋白胞外段); assay: ELISA, Siglec-15 coated, Goat Anti Human IgG-HRP detection

| Binder | binding result [1] | binding result [2] | other results |
| --- | --- | --- | --- |
| MA-II 鼠源抗Siglec-15单克隆抗体 (mouse IgG1/Ck) (antibody, V domains shown, also called 鼠源抗体分子) VH: EVKLEQSGGGLVKPGGSLKLSCAASGFTFSSYAMSWVRQSPEKRLEWVAEIISGGSHTYYPDTVTGRFTISRDDAKNTLYLEMSSLRSEDTAMYYCARDGNYGYAMDYWGQGTSVTVSS VL: DIVITQTPAIMSASPGEKVTMTCRASSSVSSSYLHWYQQKSGASPKLWIYSTSNLASGVPARFSGGGSGTSYSLTISSVEAEDDATYYCQQWSGYPWTFGGGTKLEIKA | binds | – | – |
| MA-II 噬菌体单克隆抗体 (phage-displayed scFv) (scFv, V domains shown, also called 抗Siglec-15噬菌体单克隆抗体) VH: EVKLEQSGGGLVKPGGSLKLSCAASGFTFSSYAMSWVRQSPEKRLEWVAEIISGGSHTYYPDTVTGRFTISRDDAKNTLYLEMSSLRSEDTAMYYCARDGNYGYAMDYWGQGTSVTVSS VL: DIVITQTPAIMSASPGEKVTMTCRASSSVSSSYLHWYQQKSGASPKLWIYSTSNLASGVPARFSGGGSGTSYSLTISSVEAEDDATYYCQQWSGYPWTFGGGTKLEIK | – | binds | – |
| MA-IV 鼠源抗Siglec-15单克隆抗体 (mouse IgG1/Ck) (antibody, V domains shown, also called 鼠源抗体分子) VH: EVKLQESGAELVKPGASVKLSCIASGFNIKDTFIHWVKQRPEQGLEWIGRIDPASGYTKYDPKFQGKATITTDTSSNTAYLQLSSLTSEDTAVYYCTRSGSYVSFVYWGQGTLVTVSA VL: DIVMTQTPASLAVSLGQRATISCKASQSVDYDGDSYMNWYQQKPGQPPKLLIYAASNLESGIPARFSGSGSGTDFTLNIHPVEEEDAATYYCQQSNEDPWTFGGGTKLEIKA | binds | – | – |
| MA-IV 噬菌体单克隆抗体 (phage-displayed scFv) (scFv, V domains shown, also called 抗Siglec-15噬菌体单克隆抗体) VH: EVKLQESGAELVKPGASVKLSCIASGFNIKDTFIHWVKQRPEQGLEWIGRIDPASGYTKYDPKFQGKATITTDTSSNTAYLQLSSLTSEDTAVYYCTRSGSYVSFVYWGQGTLVTVSA VL: DIVMTQTPASLAVSLGQRATISCKASQSVDYDGDSYMNWYQQKPGQPPKLLIYAASNLESGIPARFSGSGSGTDFTLNIHPVEEEDAATYYCQQSNEDPWTFGGGTKLEIK | – | binds | – |
| MA-I 噬菌体单克隆抗体 (phage-displayed scFv) (scFv, V domains shown, also called 抗Siglec-15噬菌体单克隆抗体) VH: EVKLEQSGPELVKPGASVKISCKASGYTFTDYNMFWVKQSHGKTLEWIGYIYPDNGGTGYNQNFKSKATLTVDNSSSSAYMELRSLTSEDSAVYYCARSEYDYFDYWGQGTTLTVSS VL: DIVLTQSTSSLSASLGDRVTISCRASQDISNYLNWYQQKPDGTVKLLIYYTSRLHSGVPSRFSGSGSGTDYSLTISNLEQEDIATYFCQQGNTLPLTFGAGTKLELK | – | binds | – |
| MA-I 鼠源抗Siglec-15单克隆抗体 (mouse IgG1/Ck) (antibody, also called MA-1; 鼠源抗体分子) heavy: EVKLEQSGPELVKPGASVKISCKASGYTFTDYNMFWVKQSHGKTLEWIGYIYPDNGGTGYNQNFKSKATLTVDNSSSSAYMELRSLTSEDSAVYYCARSEYDYFDYWGQGTTLTVSSAKTTPPSVYPLAPGSAAQTNSMVTLGCLVKGYFPEPVTVTWNSGSLSSGVHTFPAVLQSDLYTLSSSVTVPSSTWPSETVTCNVAHPASSTKVDKKIVPRDCGCKPCICTVPEVSSVFIFPPKPKDVLTITLTPKVTCVVVDISKDDPEVQFSWFVDDVEVHTAQTQPREEQFNSTFRSVSELPIMHQDWLNGKEFKCRVNSAAFPAPIEKTISKTKGRPKAPQVYTIPPPKEQMAKDKVSLTCMITDFFPEDITVEWQWNGQPAENYKNTQPIMDTDGSYFVYSKLNVQKSNWEAGNTFTCSVLHEGLHNHHTEKSLSHSPG light: DIVLTQSTSSLSASLGDRVTISCRASQDISNYLNWYQQKPDGTVKLLIYYTSRLHSGVPSRFSGSGSGTDYSLTISNLEQEDIATYFCQQGNTLPLTFGAGTKLELKADAAPTVSIFPPSSEQLTSGGASVVCFLNNFYPKDINVKWKIDGSERQNGVLNSWTDQDSKDSTYSMSSTLTLTKDEYERHNSYTCEATHKTSTSPIVKSFNRNEC | binds | – | – |
| 嵌合抗体CA-I (antibody, human IgG1, kappa, L234A L235A) heavy: not shown light: DIVLTQSTSSLSASLGDRVTISCRASQDISNYLNWYQQKPDGTVKLLIYYTSRLHSGVPSRFSGSGSGTDYSLTISNLEQEDIATYFCQQGNTLPLTFGAGTKLELKRTVAAPSVFIFPPSDEQLKSGTASVVCLLNNFYPREAKVQWKVDNALQSGNSQESVTEQDSKDSTYSLSSTLTLSKADYEKHKVYACEVTHQGLSSPVTKSFNRGEC | – | – | binding result [3]: binds |
| MA-III 鼠源抗Siglec-15单克隆抗体 (mouse IgG1/Ck) (antibody, V domains shown, also called 鼠源抗体分子) VH: QVKLEESGPELVKPGASVKMSCKASGYIFTSYVMHWVRQKPGQGLEWIGYIDPYNDRTKYNEKFKGKATLTSDKSSSTAYMELSSLTSEDSAVYYCARSGDYGSSFDYWGQGTTLTVSS VL: DIVMTQSPSSLSASLGERVSLTCRASQEISGYLSWLQQKPDGTIKRLIYAASTLDSGVPKRFSGSRSGSDYSLTISSLESEDFADYYCLQYASYPYTFGGGTKLEIKA | binds | – | – |
| MA-III 噬菌体单克隆抗体 (phage-displayed scFv) (scFv, V domains shown, also called 抗Siglec-15噬菌体单克隆抗体) VH: QVKLEESGPELVKPGASVKMSCKASGYIFTSYVMHWVRQKPGQGLEWIGYIDPYNDRTKYNEKFKGKATLTSDKSSSTAYMELSSLTSEDSAVYYCARSGDYGSSFDYWGQGTTLTVSS VL: DIVMTQSPSSLSASLGERVSLTCRASQEISGYLSWLQQKPDGTIKRLIYAASTLDSGVPKRFSGSRSGSDYSLTISSLESEDFADYYCLQYASYPYTFGGGTKLEIK | – | binds | – |
| 人源化抗体分子HA-II (human IgG1/Ck) (antibody, V domains shown, also called HA-Ⅱ) VH: QVQLVQSGAEVKKPGASVKVSCKASGYTFTDYNMFWVRQAPGQRLEWIGYIYPDNGGTGYNQNFKSKATLTVDNSASTAYMELSSLRSEDTAVYYCARSEYDYFDYWGQGTLVTVSS VL: DIQLTQSPSSLSASVGDRVTITCRASQDISNYLNWYQQKPGKAPKLLIYYTSRLHSGVPSRFSGSGSGTDYTFTISSLQPEDIATYFCQQGNTLPLTFGQGTKVELKR | – | – | binding result [3]: binds |
